Key:
[1] = Association of AntpHD-Cw3 with liposomes (size exclusion chromatography, micro BCA protein assay, [3H]CHE lipid count); format: physicochemical; conditions: for coupling efficiency: 10 mol % DOGS-NTA-Ni
Protocol: Formulations were incubated with AntpHD-Cw3, free peptide was separated from the associated peptide using size exclusion chromatography, amount of peptide (□) and lipid (●) was then determined for each fraction as described herein.
DOPC/Chol liposomes containing 0% (O) and 10% (▪) DOGS-NTA-Ni were incubated with AntpHD-Cw3 at various peptide to liposome ratio for 30 min. at room temperature. The amount of peptide bound was determined after the incubation period as described herein. Data presented represent averaged results obtained from three liposome preparations ±S.E.M.
200 μg of dialyzed AntpHD-Cw3 was incubated with 10 μmoles liposomes as described for FIGS. 2-4 (v/v) for 30 min. at room temperature under rotary shaking. The mixture was then loaded on a Biogel™ A 1.5 m chromatography column in order to remove the free peptide from peptide that was incorporated into the liposome. The peptide/liposome ratio was determined by quantifying liposomal lipid using [^3H]CHE. Radioactivity was measured by liquid scintillation counting on a Can berra-Packard scintillation P counter (1900 TR Tri Carb™), using Pico-fluor 40™ scintillation cocktail. The peptide was quantified using the micro BCA™ protein assay kit, after dissolving the liposomes in 0.5% triton. BSA was used as the standard for this analysis.

In the case of `CCCCCCCC/C=C\CCCCCCCC(=O)OC[C@H](COC(=O)CCC(=O)NCCCCC(C(=O)O)N(CC(=O)[O-])CC(=O)[O-])OC(=O)CCCCCCC/C=C\CCCCCCCC.[Ni+2]` (stereo partly shown) [DOGS-NTA-Ni, 1,2-Dioleoyl-sn-glycero-3-{[n(5-amino-1-carboxypentyl)iminodiaceticacid]succinyl} (Nickel Salt)], the “immune response to the lipid alone” value is reported as “little in the way of a detectable immune response”.

With “AntpHD-Cw3: Antennapedia homeodomain fused to Cw3 epitope (170-179), with 10-histidine tag and 13-amino acid linker (SEQ ID NO:1)” the coupling efficiency ([1]; initial ratio 60 AntpHD-Cw3/μmole lipid) was 80%, the coupling efficiency ([1]; initial ratio 80 AntpHD-Cw3/μmole lipid) was 65% and the “saturation of AntpHD-Cw3 binding” value ([1]; liposomes with 10 mol % DOGS-NTA-Ni, FIG. 3) was “around 50 μg AntpHD-Cw3/μmole liposomal lipid”.

Source: patent US20050058697A1, “Cell penetrating therapeutic agents” (priority 2001, published 2005)
